{
  "source": "FireProtDB (doi:10.1021/bi027116n)",
  "proteins": {"B1": {"name": "2Fe-2S ferredoxin-5 wild type, P59799 (protein)", "chain": "MPKVIVANINAEFEGIENETIMQILYRNGIEIDSACGGHGQCTSCKVLIISGSENLYPAEFEEKDTLEENGMDPETERLSCQAKLNGKGDVVIYLP"}},
  "details": "Aquifex aeolicus (strain VF5), reversible: no, whole UniProt chain shown; for denaturant midpoint (higher = more stable): 20 °C, GdnHCl",
  "note": "“And” between values parts separate entries of the source, which are not always exact repeats. Equal entries are not always repeated.",
  "data": [
    {"protein": "B1", "values": [
      {"measurement": "denaturant midpoint (higher = more stable)", "setting": "pH 4, Absorbance, citric acid-NaH2PO4", "value": 3.2, "unit": "M"},
      {"measurement": "denaturant midpoint (higher = more stable)", "setting": "pH 4, Emission, citric acid-NaH2PO4", "value": 3.2, "unit": "M"},
      {"measurement": "denaturant midpoint (higher = more stable)", "setting": "pH 5, Absorbance, Unknown", "value": 6.7, "unit": "M"},
      {"measurement": "denaturant midpoint (higher = more stable)", "setting": "pH 5, CD, Unknown", "value": 6.7, "unit": "M"},
      {"measurement": "denaturant midpoint (higher = more stable)", "setting": "pH 5, Emission, Unknown", "value": 6.9, "unit": "M"},
      {"measurement": "denaturant midpoint (higher = more stable)", "setting": "pH 10, Absorbance, Glycine-OH", "value": "7.5 M and 7.1 M"},
      {"measurement": "denaturant midpoint (higher = more stable)", "setting": "pH 10, CD, Glycine-OH", "value": 7, "unit": "M"},
      {"measurement": "denaturant midpoint (higher = more stable)", "setting": "pH 10, CD, glycine-OH", "value": "6.6 M and 6.3 M and 6.1 M"},
      {"measurement": "denaturant midpoint (higher = more stable)", "setting": "pH 10, Emission, Glycine-OH", "value": 7, "unit": "M"},
      {"measurement": "denaturant midpoint (higher = more stable)", "setting": "pH 10, Emission, glycine-OH", "value": "6.5 M and 6.1 M"},
      {"measurement": "Tm", "setting": "pH 10, Thermal, Absorbance, Glycine-OH", "value": 116, "unit": "°C"},
      {"measurement": "denaturant midpoint (higher = more stable)", "setting": "pH 11, CD, NaHCO3-NaOH", "value": 6.2, "unit": "M"},
      {"measurement": "denaturant midpoint (higher = more stable)", "setting": "pH 11, Emission, NaHCO3-NaOH", "value": 6.2, "unit": "M"}
    ]}
  ]
}
